Publication PMC7699480

Columns and labels:
IgG-SpyTag = test: electrophoresis on a bioanalyzer after covalent ligation; time course at 1:1 molar ratio; IgG-SpyTag 10 µM; ∆N-SpyCatcher-DFO kept at RT or heated for 1 h beforehand; reaction stopped by 10-fold dilution and storage at −80 °C; read-out is the share of heavy chain converted
[1] = molecular target: nimotuzumab-SpyTag (human (hG1 in the plasmid's name)); test: electrophoresis on a bioanalyzer after covalent ligation; nimotuzumab-SpyTag (10 µM) ligated with ∆N-SpyCatcher-DFO (20 µM), 1:1 SpyTag:SpyCatcher; molecular weight of the whole conjugate
nimotuzumab-SpyTag (human (hG1 in the plasmid's name)), sequence (heavy, as listed by the source, chain 1 of 2): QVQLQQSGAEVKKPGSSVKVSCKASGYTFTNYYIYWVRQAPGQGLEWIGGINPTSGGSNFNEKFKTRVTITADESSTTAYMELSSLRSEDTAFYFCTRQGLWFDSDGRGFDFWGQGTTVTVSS
nimotuzumab-SpyTag (human (hG1 in the plasmid's name)), sequence (light, as listed by the source, chain 2 of 2): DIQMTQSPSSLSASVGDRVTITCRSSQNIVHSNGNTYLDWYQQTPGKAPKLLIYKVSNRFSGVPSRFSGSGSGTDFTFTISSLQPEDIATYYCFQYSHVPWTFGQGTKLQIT

[2] = molecular target: nimotuzumab-SpyTag (human (hG1 in the plasmid's name)); test: electrophoresis on a bioanalyzer after covalent ligation; ∆N-SpyCatcher-DFO reacted with IgG-SpyTag at molar ratios 0:1, 1:4, 1:2, 1:1 and 2:1; 1 h, PBS, room temperature; products analysed under reducing conditions; read-out is the share of heavy chain shifted from ~64 kDa to ~81 kDa
[3] = molecular target: control-IgG-SpyTag (human (hG1 in the plasmid's name)); test: as above

∆N-SpyCatcher-DFO (designed binder) showed a percent of heavy chain converted (1 min) (IgG-SpyTag) of 35%, a percent of heavy chain converted (15 min) (IgG-SpyTag) of 94% and a percent of heavy chain converted (stopped reaction) (IgG-SpyTag) of 13%. For the same substance, the stoichiometry N [1] was 2, the percent of heavy chain conjugated (SpyCatcher:SpyTag 1:1) [2] was 99% and the percent of heavy chain conjugated (SpyCatcher:SpyTag 1:2) [2] was 50%. The percent of heavy chain conjugated (SpyCatcher:SpyTag 1:4) [2] was 25%, the percent of heavy chain conjugated (SpyCatcher:SpyTag 1:1) [3] was 99% and the percent of heavy chain conjugated (SpyCatcher:SpyTag 1:2) [3] was 50%. For the same substance, the percent of heavy chain conjugated (SpyCatcher:SpyTag 1:4) [3] was 25%.
